T1: H6-Mcm10 full length (FL), recombinant (human, UniProt Q7L590-2 1-874)
T1 sequence (looked up): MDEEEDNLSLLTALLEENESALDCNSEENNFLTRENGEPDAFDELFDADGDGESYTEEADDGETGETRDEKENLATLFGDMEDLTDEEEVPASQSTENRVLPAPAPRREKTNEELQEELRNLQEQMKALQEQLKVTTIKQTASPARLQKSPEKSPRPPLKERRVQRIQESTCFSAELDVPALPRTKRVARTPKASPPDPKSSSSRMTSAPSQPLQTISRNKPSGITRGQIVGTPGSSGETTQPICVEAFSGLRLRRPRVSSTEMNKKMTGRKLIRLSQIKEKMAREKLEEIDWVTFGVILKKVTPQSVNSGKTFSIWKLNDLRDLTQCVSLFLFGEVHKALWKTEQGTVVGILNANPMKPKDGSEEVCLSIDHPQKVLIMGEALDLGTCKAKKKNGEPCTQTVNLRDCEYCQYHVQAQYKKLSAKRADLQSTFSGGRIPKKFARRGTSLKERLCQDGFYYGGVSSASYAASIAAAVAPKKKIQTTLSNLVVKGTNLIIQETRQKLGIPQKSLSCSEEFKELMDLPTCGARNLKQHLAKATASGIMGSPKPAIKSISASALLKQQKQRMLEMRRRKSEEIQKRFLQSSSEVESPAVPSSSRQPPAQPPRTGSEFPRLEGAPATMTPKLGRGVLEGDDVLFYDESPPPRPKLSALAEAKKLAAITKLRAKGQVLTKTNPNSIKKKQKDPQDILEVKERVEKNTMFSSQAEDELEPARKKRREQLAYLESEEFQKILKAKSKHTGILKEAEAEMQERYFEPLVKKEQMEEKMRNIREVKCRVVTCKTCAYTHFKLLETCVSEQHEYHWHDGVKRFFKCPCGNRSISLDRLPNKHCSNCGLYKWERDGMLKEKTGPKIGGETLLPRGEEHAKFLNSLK

B1: GST-SIRT1 (enzyme, human, UniProt Q96EB6 1-747, looked up)
chain: MADEAALALQPGGSPSAAGADREAASSPAGEPLRKRPRRDGPGLERSPGEPGGAAPEREVPAAARGCPGAAAAALWREAEAEAAAAGGEQEAQATAAAGEGDNGPGLQGPSREPPLADNLYDEDDDDEGEEEEEAAAAAIGYRDNLLFGDEIITNGFHSCESDEEDRASHASSSDWTPRPRIGPYTFVQQHLMIGTDPRTILKDLLPETIPPPELDDMTLWQIVINILSEPPKRKKRKDINTIEDAVKLLQECKKIIVLTGAGVSVSCGIPDFRSRDGIYARLAVDFPDLPDPQAMFDIEYFRKDPRPFFKFAKEIYPGQFQPSLCHKFIALSDKEGKLLRNYTQNIDTLEQVAGIQRIIQCHGSFATASCLICKYKVDCEAVRGDIFNQVVPRCPRCPADEPLAIMKPEIVFFGENLPEQFHRAMKYDKDEVDLLIVIGSSLKVRPVALIPSSIPHEVPQILINREPLPHLHFDVELLGDCDVIINELCHRLGGEYAKLCCNPVKLSEITEKPPRTQKELAYLSELPPTPLHVSEDSSSPERTSPPDSSVIVTLLDQAAKSNDDLDVSESKGCMEEKPQEVQTSRNVESIAEQMENPDLKNVGSSTGEKNERTSVAGTVRKCWPNRVAKEQISRRLDGNQYLFLPPNRYIFHGAEVYSDSEDDVLSSSSCGSNSDSGTCQSPSLEEPMEDESEIEEFYNGLEDEPDVPERAGGAGFGTDGDDQEAINEAISVKQEVTDMNYPSNKS
B2: His-tagged Mcm10 C-terminal domain (CTD, aa 630-874) (domain or fragment, human, UniProt Q7L590-2 630-874, looked up)
chain: GVLEGDDVLFYDESPPPRPKLSALAEAKKLAAITKLRAKGQVLTKTNPNSIKKKQKDPQDILEVKERVEKNTMFSSQAEDELEPARKKRREQLAYLESEEFQKILKAKSKHTGILKEAEAEMQERYFEPLVKKEQMEEKMRNIREVKCRVVTCKTCAYTHFKLLETCVSEQHEYHWHDGVKRFFKCPCGNRSISLDRLPNKHCSNCGLYKWERDGMLKEKTGPKIGGETLLPRGEEHAKFLNSLK

The target of experiment [1] is T1, H6-Mcm10 full length (FL), recombinant. The experiment in a line: pull-down.
The experiment “GST-SIRT1” has as its target B1. The experiment in a line: pull-down.

On to B1, for which the binding result in experiment [1] is “binds”.
For the molecule B2, the binding result with GST-SIRT1 is recorded as “binds”.

These data come from paper PMC3627603 (Nucleic Acids Research, 2013).
